The assay has as its target NRP2 endogenous on U251 glioblastoma cells and on human lymphatic endothelial cells (HLEC) (human) (UniProt O60462). The experiment in a line: cell-based or functional assay.

Sequence of NRP2 endogenous on U251 glioblastoma cells and on human lymphatic endothelial cells (HLEC) (human) (O60462 21-931): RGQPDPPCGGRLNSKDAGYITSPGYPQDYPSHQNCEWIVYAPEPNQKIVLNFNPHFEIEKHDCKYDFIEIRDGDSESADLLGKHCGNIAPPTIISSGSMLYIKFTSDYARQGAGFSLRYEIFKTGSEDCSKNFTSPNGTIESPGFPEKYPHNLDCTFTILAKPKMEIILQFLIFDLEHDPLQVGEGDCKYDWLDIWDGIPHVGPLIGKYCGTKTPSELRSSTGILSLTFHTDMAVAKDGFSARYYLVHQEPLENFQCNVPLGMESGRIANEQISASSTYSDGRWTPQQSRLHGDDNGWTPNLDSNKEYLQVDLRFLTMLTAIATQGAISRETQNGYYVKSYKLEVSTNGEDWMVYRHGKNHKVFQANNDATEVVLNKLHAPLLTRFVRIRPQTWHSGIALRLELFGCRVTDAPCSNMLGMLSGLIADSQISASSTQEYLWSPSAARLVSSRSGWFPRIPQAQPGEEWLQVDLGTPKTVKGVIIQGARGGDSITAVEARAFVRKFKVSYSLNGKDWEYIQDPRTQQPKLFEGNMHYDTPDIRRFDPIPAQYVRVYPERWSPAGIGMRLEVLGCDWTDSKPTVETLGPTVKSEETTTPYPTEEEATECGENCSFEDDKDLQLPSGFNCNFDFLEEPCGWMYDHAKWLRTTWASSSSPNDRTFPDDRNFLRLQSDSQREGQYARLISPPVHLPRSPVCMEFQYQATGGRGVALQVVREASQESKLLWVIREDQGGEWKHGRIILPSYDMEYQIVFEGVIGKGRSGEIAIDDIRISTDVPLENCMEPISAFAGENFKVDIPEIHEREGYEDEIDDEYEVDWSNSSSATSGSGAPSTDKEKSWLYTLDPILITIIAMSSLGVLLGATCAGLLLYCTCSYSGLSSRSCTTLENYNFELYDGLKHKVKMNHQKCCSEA

For the substance “Semaphorin 3F (SEMA3F) (from UniProt Q13275 19-779) (ligand)”, the decrease in intracellular phospho-Akt levels in U251 cells turned out to be 50%.

These data come from patent publication US20210163606A1.
